Data taken from paper PMC3112360.

How the values were obtained:
[1] = molecular target: homocysteinylated fibronectin (human (endogenous in primary human dermal fibroblasts)) (UniProt P02751); assay: ELISA
[2] = molecular target: homocysteinylated FN40K fragment (human) (UniProt P02751); assay: ELISA
homocysteinylated FN40K fragment (human), sequence (P02751 32-2477): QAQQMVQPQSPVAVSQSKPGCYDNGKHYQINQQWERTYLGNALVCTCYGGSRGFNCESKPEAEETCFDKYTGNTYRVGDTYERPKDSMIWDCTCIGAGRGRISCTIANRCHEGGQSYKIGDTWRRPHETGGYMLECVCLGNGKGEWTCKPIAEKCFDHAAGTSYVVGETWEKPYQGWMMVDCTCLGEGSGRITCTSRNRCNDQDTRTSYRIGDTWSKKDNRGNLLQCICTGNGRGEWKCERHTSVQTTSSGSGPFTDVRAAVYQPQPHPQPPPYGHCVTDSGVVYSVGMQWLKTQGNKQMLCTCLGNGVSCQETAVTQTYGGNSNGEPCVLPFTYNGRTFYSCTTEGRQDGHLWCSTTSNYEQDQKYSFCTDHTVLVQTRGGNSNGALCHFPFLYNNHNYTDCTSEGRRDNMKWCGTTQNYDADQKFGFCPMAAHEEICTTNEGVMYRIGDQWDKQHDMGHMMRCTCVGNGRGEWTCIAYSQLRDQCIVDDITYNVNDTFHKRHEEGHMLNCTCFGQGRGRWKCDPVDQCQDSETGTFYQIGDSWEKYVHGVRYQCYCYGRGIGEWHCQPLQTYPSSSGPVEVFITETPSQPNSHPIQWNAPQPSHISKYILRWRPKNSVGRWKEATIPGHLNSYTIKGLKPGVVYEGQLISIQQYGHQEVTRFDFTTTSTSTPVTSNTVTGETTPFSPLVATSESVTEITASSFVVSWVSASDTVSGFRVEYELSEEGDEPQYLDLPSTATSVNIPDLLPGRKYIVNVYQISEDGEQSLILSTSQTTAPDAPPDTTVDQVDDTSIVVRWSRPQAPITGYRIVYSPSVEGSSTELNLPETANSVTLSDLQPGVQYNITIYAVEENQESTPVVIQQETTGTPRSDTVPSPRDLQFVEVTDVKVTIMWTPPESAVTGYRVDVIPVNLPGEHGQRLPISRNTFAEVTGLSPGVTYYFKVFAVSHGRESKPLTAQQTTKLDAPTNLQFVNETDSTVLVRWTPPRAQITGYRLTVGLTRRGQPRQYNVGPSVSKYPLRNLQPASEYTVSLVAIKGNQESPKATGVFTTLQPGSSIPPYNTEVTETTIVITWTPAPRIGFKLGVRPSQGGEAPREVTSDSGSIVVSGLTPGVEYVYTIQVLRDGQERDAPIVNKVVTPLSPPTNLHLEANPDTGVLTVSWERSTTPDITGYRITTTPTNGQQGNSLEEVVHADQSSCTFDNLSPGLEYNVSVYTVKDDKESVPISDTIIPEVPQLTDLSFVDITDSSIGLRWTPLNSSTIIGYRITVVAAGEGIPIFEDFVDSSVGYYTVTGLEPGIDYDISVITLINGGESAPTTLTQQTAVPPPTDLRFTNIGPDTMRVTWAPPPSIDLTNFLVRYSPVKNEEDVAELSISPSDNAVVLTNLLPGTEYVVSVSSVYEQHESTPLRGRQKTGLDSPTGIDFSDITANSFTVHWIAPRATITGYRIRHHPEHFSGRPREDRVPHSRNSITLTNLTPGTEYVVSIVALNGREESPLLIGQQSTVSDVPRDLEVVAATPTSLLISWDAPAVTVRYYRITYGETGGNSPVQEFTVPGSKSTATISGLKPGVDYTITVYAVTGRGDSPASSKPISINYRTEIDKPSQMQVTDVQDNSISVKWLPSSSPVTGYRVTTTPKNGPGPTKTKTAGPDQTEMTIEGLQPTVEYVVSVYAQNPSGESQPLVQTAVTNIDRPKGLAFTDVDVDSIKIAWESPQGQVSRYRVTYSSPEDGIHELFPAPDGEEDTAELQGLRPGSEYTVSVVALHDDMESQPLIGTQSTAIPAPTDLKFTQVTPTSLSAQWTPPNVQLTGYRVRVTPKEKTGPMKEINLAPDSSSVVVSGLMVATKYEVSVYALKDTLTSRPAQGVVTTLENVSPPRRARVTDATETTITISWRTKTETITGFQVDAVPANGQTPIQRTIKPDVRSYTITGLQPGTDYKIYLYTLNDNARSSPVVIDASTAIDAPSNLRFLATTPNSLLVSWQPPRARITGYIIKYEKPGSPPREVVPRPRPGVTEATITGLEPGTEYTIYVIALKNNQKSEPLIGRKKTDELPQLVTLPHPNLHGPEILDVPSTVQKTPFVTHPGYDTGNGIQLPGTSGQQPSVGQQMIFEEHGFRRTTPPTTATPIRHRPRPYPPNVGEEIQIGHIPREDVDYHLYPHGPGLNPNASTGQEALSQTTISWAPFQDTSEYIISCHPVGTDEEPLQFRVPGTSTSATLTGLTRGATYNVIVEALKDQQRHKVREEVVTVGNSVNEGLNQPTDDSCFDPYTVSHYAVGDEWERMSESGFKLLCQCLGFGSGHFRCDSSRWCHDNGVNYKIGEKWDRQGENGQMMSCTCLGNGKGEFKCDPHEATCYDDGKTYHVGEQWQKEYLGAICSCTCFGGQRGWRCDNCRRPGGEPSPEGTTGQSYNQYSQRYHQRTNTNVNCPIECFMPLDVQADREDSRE

homocysteinylated fibronectin (human (endogenous in primary human dermal fibroblasts)), sequence (P02751 32-2477): as above

“recombinant C-terminal half of fibrillin-1 (rFBN1-C) (from UniProt P35555 45-2731) (domain or fragment)” was tested, and the relative reduction in binding against the non-modified control [1] was 65% and the relative reduction in binding against the non-modified control [2] was 34.1%.
